Measured values: IntAct's records for PubMed 25416956

B1: Chorion-specific transcription factor GCMb (Homo sapiens), O75603 (parent)
chain: MPAAAVQEAVGVCSYGMQLSWDINDPQMPQELALFDQFREWPDGYVRFIYSSDEKKAQRHLSGWAMRNTNNHNGHILKKSCLGVVVCTQACTLPDGSRLQLRPAICDKARLKQQKKACPNCHSALELIPCRGHSGYPVTNFWRLDGNAIFFQAKGVHDHPRPESKSETEARRSAIKRQMASFYQPQKKRIRESEAEENQDSSGHFSNIPPLENPEDFDIVTETSFPIPGQPCPSFPKSDVYKATCDLATFQGDKMPPFQKYSSPRIYLPRPPCSYELANPGYTNSSPYPTLYKDSTSIPNDTDWVHLNTLQCNVNSYSSYERSFDFTNKQHGWKPALGKPSLVERTNHGQFQAMATRPYYNPELPCRYLTTPPPGAPALQTVITTTTKVSYQAYQPPAMKYSDSVREVKSLSSCNYAPEDTGMSVYPEPWGPPVTVTRAASPSGPPPMKIAGDCRAIRPTVAIPHEPVSSRTDEAETWDVCLSGLGSAVSYSDRVGPFFTYNNEDF
B2: Forkhead box protein P3 (Homo sapiens), Q9BZS1 (parent)
chain: MPNPRPGKPSAPSLALGPSPGASPSWRAAPKASDLLGARGPGGTFQGRDLRGGAHASSSSLNPMPPSQLQLPTLPLVMVAPSGARLGPLPHLQALLQDRPHFMHQLSTVDAHARTPVLQVHPLESPAMISLTPPTTATGVFSLKARPGLPPGINVASLEWVSREPALLCTFPNPSAPRKDSTLSAVPQSSYPLLANGVCKWPGCEKVFEEPEDFLKHCQADHLLDEKGRAQCLLQREMVQSLEQQLVLEKEKLSAMQAHLAGKMALTKASSVASSDKGSCCIVAAGSQGPVVPAWSGPREAPDSLFAVRRHLWGSHGNSTFPEFLHNMDYFKFHNMRPPFTYATLIRWAILEAPEKQRTLNEIYHWFTRMFAFFRNHPATWKNAIRHNLSLHKCFVRVESEKGAVWTVDELEFRKKRSQRPSRCSNPTPGP
B3: Plakophilin-2 (Homo sapiens), Q99959 (parent)
chain: MAAPGAPAEYGYIRTVLGQQILGQLDSSSLALPSEAKLKLAGSSGRGGQTVKSLRIQEQVQQTLARKGRSSVGNGNLHRTSSVPEYVYNLHLVENDFVGGRSPVPKTYDMLKAGTTATYEGRWGRGTAQYSSQKSVEERSLRHPLRRLEISPDSSPERAHYTHSDYQYSQRSQAGHTLHHQESRRAALLVPPRYARSEIVGVSRAGTTSRQRHFDTYHRQYQHGSVSDTVFDSIPANPALLTYPRPGTSRSMGNLLEKENYLTAGLTVGQVRPLVPLQPVTQNRASRSSWHQSSFHSTRTLREAGPSVAVDSSGRRAHLTVGQAAAGGSGNLLTERSTFTDSQLGNADMEMTLERAVSMLEADHMLPSRISAAATFIQHECFQKSEARKRVNQLRGILKLLQLLKVQNEDVQRAVCGALRNLVFEDNDNKLEVAELNGVPRLLQVLKQTRDLETKKQITDHTVNLRSRNGWPGAVAHACNPSTLGGQGGRITRSGVRDQPDQHGLLWNLSSNDKLKNLMITEALLTLTENIIIPFSGWPEGDYPKANGLLDFDIFYNVTGCLRNMSSAGADGRKAMRRCDGLIDSLVHYVRGTIADYQPDDKATENCVCILHNLSYQLEAELPEKYSQNIYIQNRNIQTDNNKSIGCFGSRSRKVKEQYQDVPMPEEKSNPKGVEWLWHSIVIRMYLSLIAKSVRNYTQEASLGALQNLTAGSGPMPTSVAQTVVQKESGLQHTRKMLHVGDPSVKKTAISLLRNLSRNLSLQNEIAKETLPDLVSIIPDTVPSTDLLIETTASACYTLNNIIQNSYQNARDLLNTGGIQKIMAISAGDAYASNKASKAASVLLYSLWAHTELHHAYKKAQFKKTDFVNSRTAKAYHSLKD
partner: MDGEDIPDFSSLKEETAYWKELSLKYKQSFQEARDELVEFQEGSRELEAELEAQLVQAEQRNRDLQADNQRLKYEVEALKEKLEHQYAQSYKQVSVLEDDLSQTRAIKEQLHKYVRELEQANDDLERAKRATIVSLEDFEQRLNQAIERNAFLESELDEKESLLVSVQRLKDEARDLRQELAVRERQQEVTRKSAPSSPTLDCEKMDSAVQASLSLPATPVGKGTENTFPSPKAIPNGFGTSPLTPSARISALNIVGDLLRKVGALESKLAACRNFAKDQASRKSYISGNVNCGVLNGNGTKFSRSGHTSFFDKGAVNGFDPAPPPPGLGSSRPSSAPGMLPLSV
B4: Inactive peptidyl-prolyl cis-trans isomerase FKBP6 (Homo sapiens), O75344 (parent)
chain: MGGSALNQGVLEGDDAPGQSLYERLSQRMLDISGDRGVLKDVIREGAGDLVAPDASVLVKYSGYLEHMDRPFDSNYFRKTPRLMKLGEDITLWGMELGLLSMRRGELARFLFKPNYAYGTLGCPPLIPPNTTVLFEIELLDFLDCAESDKFCALSAEQQDQFPLQKVLKVAATEREFGNYLFRQNRFYDAKVRYKRALLLLRRRSAPPEEQHLVEAAKLPVLLNLSFTYLKLDRPTIALCYGEQALIIDQKNAKALFRCGQACLLLTEYQKARDFLVRAQKEQPFNHDINNELKKLASCYRDYVDKEKEMWHRMFAPCGDGSTAGES
partner: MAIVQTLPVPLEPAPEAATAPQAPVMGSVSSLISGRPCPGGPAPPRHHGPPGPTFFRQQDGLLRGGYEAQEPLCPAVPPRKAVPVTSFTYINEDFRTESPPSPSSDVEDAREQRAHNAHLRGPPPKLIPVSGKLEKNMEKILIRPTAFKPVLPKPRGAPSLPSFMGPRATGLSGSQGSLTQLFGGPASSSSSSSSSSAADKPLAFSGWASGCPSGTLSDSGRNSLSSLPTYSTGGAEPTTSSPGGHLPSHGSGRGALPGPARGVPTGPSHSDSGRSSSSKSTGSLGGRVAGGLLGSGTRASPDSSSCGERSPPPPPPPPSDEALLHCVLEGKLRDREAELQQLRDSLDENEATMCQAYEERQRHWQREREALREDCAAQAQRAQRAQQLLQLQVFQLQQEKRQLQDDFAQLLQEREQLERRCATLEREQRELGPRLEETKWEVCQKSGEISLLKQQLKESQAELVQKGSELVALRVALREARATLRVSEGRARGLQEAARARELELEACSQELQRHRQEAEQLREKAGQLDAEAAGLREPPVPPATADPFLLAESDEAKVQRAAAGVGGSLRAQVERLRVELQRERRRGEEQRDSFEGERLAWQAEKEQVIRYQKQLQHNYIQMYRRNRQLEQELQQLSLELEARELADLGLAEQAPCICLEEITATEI

Variants of: B1
Details: with rbpms_human RBPMS

effect of a mutation on the interaction	Variant
disrupting interaction	G63S

Variants of: B2
Details: with pr20c_human PRR20C

effect of a mutation on the interaction	Variant
disrupting interaction	Q70H

Variants of: B2
Details: with rbpms_human RBPMS

effect of a mutation on the interaction	Variant
disrupting interaction	Q70H

Variants of: B2
Details: with pr20c_human PRR20C
Remark: another data set of the same source

effect of a mutation on the interaction	Variant
disrupting interaction	I363V

Variants of: B2
Details: with rbpms_human RBPMS
Remark: another data set of the same source

effect of a mutation on the interaction	Variant
disrupting interaction	I363V

Variants of: B3
Details: with ndel1_human NDEL1, Q9GZM8

effect of a mutation on the interaction	Variant
disrupting interaction	S644P

Variants of: B3
Details: with ndel1_human NDEL1, Q9GZM8
Remark: another data set of the same source

effect of a mutation on the interaction	Variant
disrupting interaction	S140F

Variants of: B4
Details: with lzts2_human LZTS2, Q9BRK4

effect of a mutation on the interaction	Variant
disrupting interaction	F72L
